Consider five molecules from doi:10.1101/2022.10.23.513379 (bioRxiv, 2022).

The target in assay [1] is T1, His-tagged wildtype SARS-CoV-2 RBD (BEI NR52309) (SARS-CoV-2, wildtype (Wuhan-Hu-1), UniProt P0DTC2). Kind of assay: crystal structure.
The target in assay [2] is T1, His-tagged wildtype SARS-CoV-2 RBD (BEI …). Kind of assay: BLI. For orientation: In BLI a coated tip is dipped into the sample, and binding shifts an interference pattern.

B1: 80 Fab (Fab, V domains shown)
VH: QVQLVQSGAEVKKPGSSVKVSCKASGGTFNRYAFSWVRQAPGQGLEWMGGIIPIFGTANYAQKFQGRVTITADESTSTAYMELSSLRSEDTAVYYCARSTRELPEVVDWYFDLWGRGTLVTVSS
VL: not shown
Regarding B1, the binding result in assay [1] is listed as “binds”.

B2: 80 IgG (antibody, V domains shown)
VH: QVQLVQSGAEVKKPGSSVKVSCKASGGTFNRYAFSWVRQAPGQGLEWMGGIIPIFGTANYAQKFQGRVTITADESTSTAYMELSSLRSEDTAVYYCARSTRELPEVVDWYFDLWGRGTLVTVSS
VL: not shown
Consider B2, for which the binding result in assay [2] is “binds”.

B3: 80 MB (mono-specific Multabody of specificity 80) (complex)
VH: QVQLVQSGAEVKKPGSSVKVSCKASGGTFNRYAFSWVRQAPGQGLEWMGGIIPIFGTANYAQKFQGRVTITADESTSTAYMELSSLRSEDTAVYYCARSTRELPEVVDWYFDLWGRGTLVTVSS
VL: not shown
On to B3, for which the binding result in assay [2] is “binds”.

B4: 2-7 MB (mono-specific Multabody of specificity 2-7) (complex)
VH: QITLKESGPTLVKPTQTLTLTCTFSGFSLSTSGVGVGWIRQPPGKALEWLALIYWDDDKRYSPSLKSRLTITKDTSKNQVVLTMTNMDPVDTATYYCAHHKIERIFDYWGQGTLVTVSS
VL: SALAQPASVSGSPGQSITISCTGTSSDVGAYNYVSWYQQHPGKAPKLMIYDVSKRPSGVSNRFSGSKSGNTASLTISGLQAEDEADYYCSSYTTSSTVFGGGTKLTVL
Take B4: the binding result in assay [2] is reported as “binds”.

B5: 2-7 IgG (antibody, V domains shown)
VH: QITLKESGPTLVKPTQTLTLTCTFSGFSLSTSGVGVGWIRQPPGKALEWLALIYWDDDKRYSPSLKSRLTITKDTSKNQVVLTMTNMDPVDTATYYCAHHKIERIFDYWGQGTLVTVSS
VL: SALAQPASVSGSPGQSITISCTGTSSDVGAYNYVSWYQQHPGKAPKLMIYDVSKRPSGVSNRFSGSKSGNTASLTISGLQAEDEADYYCSSYTTSSTVFGGGTKLTVL
Consider B5, for which, in assay [2], the binding result is listed as “binds”.
